Data from paper PMC3479090.

Assays:
[1] = target: human CD1d construct with C-terminal 3C protease site and 6X-Histidine tag, loaded with α-galactosylceramide (form used for SPR), P15813;P61769; experiment: SPR; conditions: read off a plot; for koff: parent: est. 0.34; for kon: parent: est. 1.3e4
[2] = target: Vα24+ NKT TCR clone J24L.17 (iNKT TCR, Vα24-Jα18/Vβ11) (human); experiment: SPR; same curves as the kinetic analysis plus 9 µM and 27 µM CD1d–αGalCer; TCR on the chip; equilibrium analysis
[3] = target: Vα24+ NKT TCR clone J24L.17 (iNKT TCR, Vα24-Jα18/Vβ11) (human); experiment: SPR; BIAcore 3000; 300 RU of TCR captured on a Ni-NTA sensor chip, surface blocked with recombinant IgFc; CD1d–αGalCer injected (0, 0.037, 0.111, 0.333, 1, 3 µM for kinetics; series up to 27 µM) at 30 µl/min in 10 mM Hepes pH 7.4, 150 mM NaCl, 0.005% Tween-20; kinetic analysis, Langmuir 1:1 model

Substance | koff [1] [s⁻¹] | kon [1] [M⁻¹ s⁻¹] | Kd [1] [nM] | Kd [2] [nM] | Kd [3] [nM] | koff [3] [s⁻¹] | kon [3] [M⁻¹ s⁻¹]
Vα24− TCR J24.N22 (Vα3.1-Jα18/Vβ11), soluble heterodimer with zippers and His tags N29A | 0.89 | 3700 | 24000 | – | – | – | –
Vα24− TCR J24.N22 (Vα3.1-Jα18/Vβ11), soluble heterodimer with zippers and His tags S27A | 0.51 | 12000 | 4200 | – | – | – | –
human CD1d construct with C-terminal 3C protease site and 6X-Histidine tag, loaded with α-galactosylceramide (form used for SPR) (from UniProt P15813 20-335; P61769 21-119) (complex) | – | – | – | 1900 | 2100 | 0.414 | 194000

More lines, in order of falling Kd [1], values ahead:

koff [1] [s⁻¹] | kon [1] [M⁻¹ s⁻¹] | Kd [1] [nM] | Kd [2] [nM] | Kd [3] [nM] | koff [3] [s⁻¹] | kon [3] [M⁻¹ s⁻¹] | Substance
– | 12000 | 3400 | – | – | – | – | Vα24− TCR J24.N22 (Vα3.1-Jα18/Vβ11), soluble heterodimer with zippers and His tags N51A
0.38 | 23000 | 1700 | – | – | – | – | Vα24− TCR J24.N22 (Vα3.1-Jα18/Vβ11), soluble heterodimer with zippers and His tags S50A
0.52 | 30000 | 1700 | – | – | – | – | Vα24− TCR J24.N22 (Vα3.1-Jα18/Vβ11), soluble heterodimer with zippers and His tags S97A
